Substitutions are numbered along the chain they refer to. “And” between values parts separate entries of the source, which are not always exact repeats. Identical values can stand only once.
B1: anti-TRBV9-1 monoclonal antibody (antibody, human IgG1, kappa, V domains shown)
VH: QIQLVQSGPELREPGESVKLSCKASGYTFTDYLVHWVKQAPGKGLKWMGWINTYTGTPTYADDFEGRFVFSLEASASTANLQISNLKNEDTATYFCARSWRRGLRGLGFDYWGQGVFVTVSS
VL: DVQMTQSPYNLAASPGESVSINCKASKSINKYLAWYQQKPGKPNKLLIYDGSTLQSGIPSRFSGSGSGTDFTLTIRGLEPEDFGLYYCQQHNEYPPTFGAGTKLELKR
B2: anti-TRBV9-4 monoclonal antibody (antibody, human IgG1, kappa, V domains shown)
VH: B1 VH with L104I, L107I
VL: B1 VL
B3: anti-TRBV9-3 monoclonal antibody (antibody, human IgG1, kappa, V domains shown)
VH: B1 VH with L104I
VL: B1 VL
B4: anti-TRBV9-2 monoclonal antibody (antibody, human IgG1, kappa, V domains shown)
VH: B1 VH with L107I
VL: B1 VL

target: T cell receptor with a beta-chain of the TRBV9 family on human peripheral blood T lymphocytes (human); experiment: flow cytometry of human blood mononuclear cells, FITC-labelled antibody at 270 ng per test (upper plot), co-stained with anti-CD3-eFluor 405 [upper plot]

Binder | % of cells in the CD3+TRBV9+ gate (small rectangle)
B1 | 1.6%
B2 | 2.9%
B3 | 3%

target: TRBV9 + TRAV38 antigen; experiment: BLI (OctetRed 96), antigen immobilized on AR2G sensor, antibody 126-2 nM, 1:1 model

Binder | Kd | koff | kon
B1 | 0.365 nM and 0.529 nM and 0.414 nM | 0.000205 s⁻¹ and 0.000196 s⁻¹ and 0.000183 s⁻¹ | 562000 M⁻¹ s⁻¹ and 371000 M⁻¹ s⁻¹ and 441000 M⁻¹ s⁻¹
B2 | < 0.001 nM | < 1e-07 s⁻¹ | 713000 M⁻¹ s⁻¹ and 476000 M⁻¹ s⁻¹
B4 | < 0.001 nM | < 1e-07 s⁻¹ | 397000 M⁻¹ s⁻¹ and 289000 M⁻¹ s⁻¹
B3 | 0.311 nM and 0.4 nM | 9.61e-05 s⁻¹ and 9.16e-05 s⁻¹ | 309000 M⁻¹ s⁻¹ and 229000 M⁻¹ s⁻¹

target: TRBV9 + TRAV26 antigen; experiment: as above

Binder | Kd | koff | kon
B1 | 0.22 nM and 0.204 nM and 0.278 nM | 0.000114 s⁻¹ and 0.000113 s⁻¹ and 0.000183 s⁻¹ | 559000 M⁻¹ s⁻¹ and 515000 M⁻¹ s⁻¹ and 658000 M⁻¹ s⁻¹
B2 | < 0.001 nM | < 1e-07 s⁻¹ | 865000 M⁻¹ s⁻¹ and 579000 M⁻¹ s⁻¹
B4 | – | – | 447000 M⁻¹ s⁻¹ and 381000 M⁻¹ s⁻¹
B3 | 0.319 nM and 0.582 nM | 9.16e-05 s⁻¹ and 9.8e-05 s⁻¹ | 287000 M⁻¹ s⁻¹ and 168000 M⁻¹ s⁻¹

target: T cell receptor with a beta-chain of the TRBV9 family on human peripheral blood T lymphocytes (human); experiment: cell sorting with the FITC-labelled antibody, then sequencing of TCR beta-chains

Binder | percent of TCR beta-chain sequences of the sorted CD3+TRBV9+ fraction that belong to the TRBV9 family
B4 | 90%

target: T cell receptor with a beta-chain of the TRBV9 family on human peripheral blood T lymphocytes (human); experiment: flow cytometry, FITC-labelled antibody at 5 ng/ul and 0.5 ng/ul on human mononuclear blood cells

Binder | percent of the CD3-positive fraction stained
B4 | 2.9%

target: T cell receptor with a beta-chain of the TRBV9 family on human peripheral blood T lymphocytes (human); experiment: flow cytometry of human blood mononuclear cells, FITC-labelled antibody at 27 ng per test (lower plot), co-stained with anti-CD3-eFluor 405 [lower plot]

Binder | % of cells in the CD3+TRBV9+ gate (small rectangle)
B1 | 3%
B2 | 2.4%
B3 | 2.6%
